The supplement of paper PMC11246515
± gives the standard deviation of the averaged measurements.

Assay: total protein half-life in vivo (active degradation + dilution); higher = more stable protein
[1] = E. coli NCM3722 delta-clpP delta-lon delta-hslV, growth: N-lim chemostat, doubling time 6 h
[2] = E. coli NCM3722 delta-clpP, growth: N-lim chemostat, doubling time 6 h
[3] = E. coli NCM3722 delta-hslV, growth: N-lim chemostat, doubling time 6 h
[4] = E. coli NCM3722 delta-lon, growth: N-lim chemostat, doubling time 6 h
[5] = E. coli NCM3722 delta-smpB, growth: N-lim chemostat, doubling time 6 h
[6] = wild type E. coli NCM3722, growth: C-lim chemostat, doubling time 3 h
[7] = wild type E. coli NCM3722, growth: C-lim chemostat, doubling time 6 h
[8] = wild type E. coli NCM3722, growth: C-lim chemostat, doubling time 12 h
[9] = wild type E. coli NCM3722, growth: N-lim chemostat, doubling time 6 h
[10] = wild type E. coli NCM3722, growth: N-lim chemostat, doubling time 12 h
[11] = wild type E. coli NCM3722, growth: P-lim chemostat, doubling time 6 h
[12] = wild type E. coli NCM3722, growth: P-lim chemostat, doubling time 12 h

Sequence | total protein half-life in vivo [1] [h] | total protein half-life in vivo [2] [h] | total protein half-life in vivo [3] [h] | total protein half-life in vivo [4] [h] | total protein half-life in vivo [5] [h] | total protein half-life in vivo [6] [h] | total protein half-life in vivo [7] [h] | total protein half-life in vivo [8] [h] | total protein half-life in vivo [9] [h] | total protein half-life in vivo [10] [h] | total protein half-life in vivo [11] [h] | total protein half-life in vivo [12] [h]
MVNLVIVSHSSRLGEGVGELARQMLMSDSCKIAIAAGIDDPQNPIGTDAVKVMEAIESVADADHVLVMMDMGSALLSAETALELLAPEIAAKVRLCAAPLVEGTLAATVSAASGADIDKVIFDAMHALEAKREQLGLPSSDTEISDTCPAYDEEARSLAVVIKNRNGLHVRPASRLVYTLSTFNADMLLEKNGKCVTPESINQIALLQVRYNDTLRLIAKGPEAEEALIAFRQLAEDNFGETEEVAPPTLRPVPPVSGKAFYYQPVLCTVQAKSTLTVEEEQDRLRQAIDFTLLDLMTLTAKAEASGLDDIAAIFSGHHTLLDDPELLAAASELLQHEHCTAEYAWQQVLKELSQQYQQLDDEYLQARYIDVDDLLHRTLVHLTQTKEELPQFNSPTILLAENIYPSTVLQLDPAVVKGICLSAGSPVSHSALIARELGIGWICQQGEKLYAIQPEETLTLDVKTQRFNRQG | 5.07 ± 0.8 | 5.24 ± 0.96 | 4.67 ± 0.96 | 4.07 ± 0.32 | 3.51 ± 0.52 | 3.39 ± 0.48 | 6.02 ± 0.54 | 10 ± 0.98 | 4.01 ± 0.29 | 6.3 ± 0.85 | 5.33 ± 0.27 | 11.4 ± 1.5
MAQQTPLYEQHTLCGARMVDFHGWMMPLHYGSQIDEHHAVRTDAGMFDVSHMTIVDLRGSRTREFLRYLLANDVAKLTKSGKALYSGMLNASGGVIDDLIVYYFTEDFFRLVVNSATREKDLSWITQHAEPFGIEITVRDDLSMIAVQGPNAQAKAATLFNDAQRQAVEGMKPFFGVQAGDLFIATTGYTGEAGYEIALPNEKAADFWRALVEAGVKPCGLGARDTLRLEAGMNLYGQEMDETISPLAANMGWTIAWEPADRDFIGREALEVQREHGTEKLVGLVMTEKGVLRNELPVRFTDAQGNQHEGIITSGTFSPTLGYSIALARVPEGIGETAIVQIRNREMPVKVTKPVFVRNGKAVA | 4.25 ± 0.29 | 3.94 ± 0.048 | 4.22 ± 0.35 | 4.16 ± 0.17 | 3.94 ± 0.068 | 3.01 ± 0.22 | 5.71 ± 0.81 | 10.5 ± 0.62 | 3.81 ± 0.2 | 6.76 ± 0.92 | 5.88 ± 0.12 | 11.4 ± 0.68
MDKLLERFLNYVSLDTQSKAGVRQVPSTEGQWKLLHLLKEQLEEMGLINVTLSEKGTLMATLPANVPGDIPAIGFISHVDTSPDCSGKNVNPQIVENYRGGDIALGIGDEVLSPVMFPVLHQLLGQTLITTDGKTLLGADDKAGIAEIMTALAVLQQKKIPHGDIRVAFTPDEEVGKGAKHFDVDAFDARWAYTVDGGGVGELEFENFNAASVNIKIVGNNVHPGTAKGVMVNALSLAARIHAEVPADESPEMTEGYEGFYHLASMKGTVERADMHYIIRDFDRKQFEARKRKMMEIAKKVGKGLHPDCYIELVIEDSYYNMREKVVEHPHILDIAQQAMRDCDIEPELKPIRGGTDGAQLSFMGLPCPNLFTGGYNYHGKHEFVTLEGMEKAVQVIVRIAELTAQRK | 4.47 ± 0.093 | 4.26 ± 0.49 | 3.88 ± 0.14 | 4.53 ± 0.13 | 4.04 ± 0.089 | 3.079 ± 0.019 | 6.32 ± 1.1 | 9.74 ± 0.59 | 3.97 ± 0.13 | 5.85 ± 0.25 | 5.38 ± 0.2 | 10.3 ± 0.14
MKNTKLLLAIATSAALLTGCQNTHGIDTNMAISSGLNAYKAATLSDADAKAIANQGCAEMDSGNQVASKSSKYGKRLAKIAKALGNNINGTPVNYKVYMTSDVNAWAMANGCVRVYSGLMDMMNDNEIEGVLGHELGHVALGHSLAEMKASYAIVAARDAISATSGVASQLSRSQLGDIAEGAINAKYSRDKESEADDFSFDLLKKRGISTQGLVGSFETLASLDGGRTQSMFDSHPPSTERAQHIRDRIASGK |  | 3.87 | 4.19 | 5.88 |  |  |  |  |  |  |  | 
MEKKIGFIGCGNMGKAILGGLIASGQVLPGQIWVYTPSPDKVAALHDQFGINAAESAQEVAQIADIIFAAVKPGIMIKVLSEITSSLNKDSLVVSIAAGVTLDQLARALGHDRKIIRAMPNTPALVNAGMTSVTPNALVTPEDTADVLNIFRCFGEAEVIAEPMIHPVVGVSGSSPAYVFMFIEAMADAAVLGGMPRAQAYKFAAQAVMGSAKMVLETGEHPGALKDMVCSPGGTTIEAVRVLEEKGFRAAVIEAMTKCMEKSEKLSKS [P0A9L8] | 6.83 ± 1.6 | 5.45 ± 0.76 | 5.12 ± 0.073 | 5.68 ± 0.49 | 5.54 ± 0.52 | 3.01 ± 0.19 | 6.48 ± 1 | 10.6 ± 2.5 | 5.02 ± 0.91 | 9.31 ± 1 | 5.51 ± 0.83 | 11.8 ± 0.66
MKPARVPQTVVAPDCWGDLPWGKLYRKALERQLNPWFTKMYGFHLLKIGNLSAEINCEACAVSHQVNVSAQGMPVQVQADPLHLPFADKSVDVCLLAHTLPWCTDPHRLLREADRVLIDDGWLVISGFNPISFMGLRKLVPVLRKTSPYNSRMFTLMRQLDWLSLLNFEVLHASRFHVLPWNKHGGKLLNAHIPALGCLQLIVARKRTIPLTLNPMKQSKNKPRIRQAVGATRQCRKPQA | 5.49 ± 0.13 |  | 5.49 ± 0.6 | 5.76 ± 1 | 7.25 ± 1 | 1.91 ± 0.15 | 4.59 ± 1.2 | 11.5 | 6.41 | 9.9 ± 3.1 | 5.31 ± 1.1 | 10.6 ± 2.4
MICRFIDTHCHFDFPPFSGDEEASLQRAAQAGVGKIIVPATEAENFARVLALAENYQPLYAALGLHPGMLEKHSDVSLEQLQQALERRPAKVVAVGEIGLDLFGDDPQFERQQWLLDEQLKLAKRYDLPVILHSRRTHDKLAMHLKRHDLPRTGVVHGFSGSLQQAERFVQLGYKIGVGGTITYPRASKTRDVIAKLPLASLLLETDAPDMPLNGFQGQPNRPEQAARVFAVLCELRREPADEIAQALLNNTYTLFNVP | 5.92 ± 0.41 | 4.26 ± 0.21 | 4.72 ± 0.12 | 6.38 ± 1.4 | 4.45 ± 0.36 | 3.12 ± 0.34 | > 8 | 9.45 ± 4.5 | 4.57 ± 0.41 | 8.41 ± 1.9 |  | 12.3 ± 0.15
MVIKAQSPAGFAEEYIIESIWNNRFPPGTILPAERELSELIGVTRTTLREVLQRLARDGWLTIQHGKPTKVNNFWETSGLNILETLARLDHESVPQLIDNLLSVRTNISTIFIRTAFRQHPDKAQEVLATANEVADHADAFAELDYNIFRGLAFASGNPIYGLILNGMKGLYTRIGRHYFANPEARSLALGFYHKLSALCSEGAHDQVYETVRRYGHESGEIWHRMQKNLPGDLAIQGR [P0A8V6] | 5.22 ± 0.34 | 5.72 ± 0.28 | 5.12 ± 0.56 | 6.05 ± 0.6 | 5.01 ± 0.18 | 2.88 ± 0.091 | 6.27 ± 0.67 | 9.92 ± 0.94 | 5.93 ± 0.23 | 10.3 ± 0.15 | 4.58 ± 0.83 | 8.62 ± 1.3
